Laboratory results reported in patent publication US20250011448A1 (STAIDSON BIOPHARMA, published 2025).

T1: human TNFR2 extracellular domain fused to human IgG1 Fc (human, UniProt P20333 23-257)
T1 construct: also called TNFR2-huFc; huTNFR2; not shown: C-terminal human IgG1 Fc
T1 sequence: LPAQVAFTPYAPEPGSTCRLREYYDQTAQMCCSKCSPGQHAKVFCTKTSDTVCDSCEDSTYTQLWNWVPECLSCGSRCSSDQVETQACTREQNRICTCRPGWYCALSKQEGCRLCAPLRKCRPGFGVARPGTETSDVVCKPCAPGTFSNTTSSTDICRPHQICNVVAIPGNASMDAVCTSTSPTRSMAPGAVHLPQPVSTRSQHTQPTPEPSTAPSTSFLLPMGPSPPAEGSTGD

T2: human TNFR2 expressed on cells (Expi293 cells stably expressing huTNFR2) (human, UniProt P20333 23-461)
T2 construct: whole, on cells; Also used here as the target of the Treg assay (native TNFR2 on human primary Treg cells); also called huTNFR2 expressed cells; Expi293-TNFR2 cells
T2 sequence (looked up): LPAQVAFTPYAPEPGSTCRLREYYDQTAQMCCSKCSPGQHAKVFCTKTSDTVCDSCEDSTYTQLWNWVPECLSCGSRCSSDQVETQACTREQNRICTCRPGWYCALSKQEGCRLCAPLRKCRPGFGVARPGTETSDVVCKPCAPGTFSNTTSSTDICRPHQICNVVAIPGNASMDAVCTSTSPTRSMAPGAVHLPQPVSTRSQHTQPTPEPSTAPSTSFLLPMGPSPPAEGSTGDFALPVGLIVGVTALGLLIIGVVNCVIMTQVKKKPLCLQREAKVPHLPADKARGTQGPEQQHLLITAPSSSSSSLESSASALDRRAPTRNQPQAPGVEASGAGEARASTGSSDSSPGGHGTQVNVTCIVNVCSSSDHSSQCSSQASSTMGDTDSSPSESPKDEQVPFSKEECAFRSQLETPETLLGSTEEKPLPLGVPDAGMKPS

T3: cynomolgus monkey TNFR2 extracellular domain as used in the blocking ELISA (cynomolgus monkey, UniProt P20333 23-257 (human entry))
T3 construct: also called cynoTNFR2
T3 chain: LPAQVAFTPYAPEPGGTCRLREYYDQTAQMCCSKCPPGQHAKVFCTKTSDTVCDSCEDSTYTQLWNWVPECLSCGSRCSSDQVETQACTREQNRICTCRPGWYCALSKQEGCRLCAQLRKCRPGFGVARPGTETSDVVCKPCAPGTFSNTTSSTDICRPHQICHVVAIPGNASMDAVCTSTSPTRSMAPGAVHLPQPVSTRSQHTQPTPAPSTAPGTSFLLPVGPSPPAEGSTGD

T4: cynomolgus monkey TNFR2 extracellular domain with C-terminal 10×His tag (cynomolgus monkey, UniProt P20333 23-257 (human entry))
T4 construct: also called cynoTNFR2-His; His-tag-cynoTNFR2
T4 chain: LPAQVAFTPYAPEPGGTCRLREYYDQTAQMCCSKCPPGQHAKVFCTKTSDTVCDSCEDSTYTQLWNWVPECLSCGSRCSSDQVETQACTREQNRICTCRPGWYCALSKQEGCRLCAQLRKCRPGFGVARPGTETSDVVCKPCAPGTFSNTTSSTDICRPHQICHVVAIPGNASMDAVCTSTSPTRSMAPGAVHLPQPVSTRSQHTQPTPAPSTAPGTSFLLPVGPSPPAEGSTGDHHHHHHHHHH


Key:
[1] = biological target: T1, human TNFR2 extracellular domain fused …; experiment: blocking ELISA: antibody pre-mixed with huTNFR2, binding of huTNFR2 to coated human TNFα read out
Experimental: (§1) 96-well round bottom ELISA plates were coated overnight at 4° C. with 50 μL/well of 0.5 μg/mL human TNFα recombinant protein (R&D system, Cat #210-TA-100) in coating buffer. After removing the coating solution, blocking buffer was added into the plates followed by incubation at room temperature for 1 hour in order to block unspecific binding. During the blocking period, hybridoma antibodies samples were mixed with 0.5 μg/mL TNFR2-huFc at a 1:1 volume ratio and incubated at room temperature for another 1.5 hours. Then 50 μL/well of antigen-antibody mix solution was transferred into TNFα coated wells and incubated at room temperature for 1.5 hours. Plates were then washed 5 times with wash buffer. Then, 50 μL/well of goats anti-human IgG Fc-AP (Southern Biotech, cat #2014-04) at 1:2000 dilution in assay buffer was added, incubated at room temperature for 1 hour, washed 4 times with wash buffer and developed for 30 minutes with 50 μL/well of pNPP substrate. Plates were analyzed with a Synergy HT (Bio-TEK) at 405 nm. Parental hybridomas with the desired human and cynoTNFR2 binding as well as the ability to block human TNFR2 and human TNFα binding were prioritized for subcloning and further characterization. Subcloning was carried out with limited dilution and visual inspection was performed to ensure clonality. Hybridoma subclones were screened with the same binding and blocking assays and selected positive hits were cryopreserved.
(§2) TNFR2 blocking by purified recombinant chimeric antibodies: Human TNFR2 blocking ELISA was performed on purified recombinant chimeric antibodies following the same protocol as described above, except that 50 μL/well of serial dilution of purified antibodies (starting at 10 μg/mL, 1:3 dilution) in assay buffer was added into the reaction. The blocking IC₅₀ value represents the antibody concentration that inhibited 50% of huTNFR2 or cynoTNFR2 binding to coated human TNFα or cynomolgus monkey TNFα.

[2] = biological target: T2, human TNFR2 expressed on cells (Expi293 …); experiment: flow cytometry: inhibition of binding of 10 nM Alexa Fluor 647 human TNFα to Expi293 cells expressing huTNFR2
Experimental: Expi293 cells stably expressing huTNFR2 were incubated with anti-TNFR2 antibodies for 30 minutes at 4° C. […] Cells were washed and acquired by flow cytometry with Attune. Data were analyzed with FlowJo software. TNFα binding is represented as MFI.
As shown in Table 10 and FIG. 4B, the anti-TNFR2 chimeric antibodies, 51B5, 85G8.4, 29G3, 11C1, and 15H10 inhibited soluble TNFα binding to TNFR2-expressing Expi293 cells dose-dependently and potently.

[3] = biological target: T3, cynomolgus monkey TNFR2 extracellular …; experiment: blocking ELISA: antibody pre-mixed with cynoTNFR2, binding of cynoTNFR2 to coated cynomolgus monkey TNFα read out
Experimental: as §1, §2

[4] = biological target: T4, cynomolgus monkey TNFR2 extracellular …; experiment: BLI (Octet RED96), antibody captured on AHC biosensor, His-tagged TNFR2 in solution, 1:1 model
Experimental: The following kinetic assay was performed using anti-human IgG Fc capture (AHC) biosensors (ForteBio) in kinetics buffer (PBS, 0.1% Tween-20 and 1% bovine serum albumin): (a) antibody (2 μg/mL) for 300 sec, (b) baseline for 120 sec, (c) association with His-tag-huTNFR2 (2.5, 0.5 and 0 μg/mL) and His-tag-cynoTNFR2 (2.5, 0.5 and 0 μg/mL) for 420 sec and (d) dissociation for 1200 sec. Data fitting and analysis was performed with Octet data analysis software 8.0 (ForteBio) using a 1:1 binding model after Savitzky-Golay filtering.

Row | Binder | IC50 [1] [nM] | IC50 [2] [nM] | IC50 [3] [nM] | Kd [4] [nM] | koff [4] [s⁻¹] | kon [4] [M⁻¹ s⁻¹]
1 | 15H10 chimeric anti-TNFR2 antibody (antibody, V domains shown, Chimeric: mouse variable domains with human constant regions, made as recombinant IgG1) VH: DVQLQESGPGLVTPSQSLSLTCSVTGYSITSGYYWNWIRQFPGNKLEWMGYITYDGNNNYNPSLKSRFSITRDTSKNQFFLKLNSVTSEDTATYYCARGDYGDSAMDYWGQGTSVTVSS VL: EIVLTQSPAITAASLGQKVTITCSASSGVNYMHWYQQKSGTSPKPWIYEISKLASGVPARFSGSGSGTSYSLTISSMEAEDAAIYYCQQWNYPLITFGAGTKVELK | 0.584 | 3.37 | 1.01 | 1.42 | 0.000368 | 259000
2 | 11C1 chimeric anti-TNFR2 antibody (antibody, V domains shown, Chimeric: mouse variable domains with human constant regions, made as recombinant IgG1) VH: DVQLRESGPGLVTPSQSLSLTCSVTGYSITSGYYWNWIRQIPGNKLEWMGYITYDGNNNYDPSLKNRISITRDTSKNQFFLTLNSVTSEDTATYYCARGDYGDSAMDYWGQGTSVTVSS VL: EIVLTQSPAITAASLGQKVTITCSASSSVSYMHWYQQKSGTSPKPWIYEISKLASGVPARFSGSGSGTSYSLIISSMEAEDAAIYYCQQWNYPLITFGAGTKLELK | 0.723 | 2.51 | 1.09 | – | – | –
3 | 85G8.4 chimeric anti-TNFR2 antibody (antibody, V domains shown, Chimeric: mouse variable domains with human constant regions, made as recombinant IgG1) VH: EVQLQQSGPELVKPGASVKISCKTSGYTFTDFNMDWVKQSHGKSLEWIGYINPNNGDAAYNQKFKSKATLTVDKSSNTAYMELHSLTSDDSAVYYCARWGWAFAYWGQGTLVTVSA VL: DIVMTQSHKIMSTSVGDRVSITCKASQDVKTAVAWYQQKPGQSPKLLIYATSYRYTGVPDRFTGSGSGTDFTFTISTVQAEDLAVYYCQQHYSIPYTFGGGTKLEIK | 0.583 | 1.57 | 1.02 | 1.3 | 0.000534 | 412000
4 | 29G3 chimeric anti-TNFR2 antibody (antibody, V domains shown, Chimeric: mouse variable domains with human constant regions, made as recombinant IgG1) VH: EVMLVESGGASVKPGGSLKLSCAASGFTFSNFAMSWVRQTPEKRLEWVATIRSGDNYSYYSDNVKGRFTISRDNARNTLYLQMSSLRSKDTSIYYCARNWDKVFDYWGQGTTLTVSS VL: DIVLTQSPASLAVSLGQRATISCRASESVDSYGYSFMHWYQQKPGQPPKLLIYRASNLKSGIPARFSGSGSRTDFTLTINPVEADDVATYYCQQSNEDHTFGGGTKLEIK | 0.505 | 0.275 | 0.927 | 1.59 | 0.002 | 1.26e+06
